Experimental data reported in US20240287163A1 (Chugai, published 2024).
Substitutions are numbered along the chain they refer to.

T1: recombinant cynomolgus C1r2s2 tetramer (cynomolgus monkey, limits assumed)
T1 construct: also called cyC1r2s2; monkey C1r2s2
T1 chain 1: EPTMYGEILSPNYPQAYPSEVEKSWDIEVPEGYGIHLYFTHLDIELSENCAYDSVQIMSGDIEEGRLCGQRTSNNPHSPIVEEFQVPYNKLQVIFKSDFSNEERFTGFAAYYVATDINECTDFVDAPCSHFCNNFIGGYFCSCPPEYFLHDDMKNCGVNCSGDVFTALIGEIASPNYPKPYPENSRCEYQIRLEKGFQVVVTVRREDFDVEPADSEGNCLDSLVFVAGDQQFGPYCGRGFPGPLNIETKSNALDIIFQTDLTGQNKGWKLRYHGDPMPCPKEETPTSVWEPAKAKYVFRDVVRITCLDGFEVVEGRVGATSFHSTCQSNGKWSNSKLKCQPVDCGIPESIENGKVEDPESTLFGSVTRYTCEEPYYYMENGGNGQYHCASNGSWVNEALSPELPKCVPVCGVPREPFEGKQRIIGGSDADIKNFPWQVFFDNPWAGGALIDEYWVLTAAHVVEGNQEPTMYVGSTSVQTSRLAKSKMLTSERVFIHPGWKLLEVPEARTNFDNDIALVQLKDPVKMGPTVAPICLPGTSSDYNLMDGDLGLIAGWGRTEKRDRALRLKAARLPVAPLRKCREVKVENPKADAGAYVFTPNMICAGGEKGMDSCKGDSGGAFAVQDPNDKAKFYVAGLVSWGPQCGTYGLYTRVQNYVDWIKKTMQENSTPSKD
T1 chain 2: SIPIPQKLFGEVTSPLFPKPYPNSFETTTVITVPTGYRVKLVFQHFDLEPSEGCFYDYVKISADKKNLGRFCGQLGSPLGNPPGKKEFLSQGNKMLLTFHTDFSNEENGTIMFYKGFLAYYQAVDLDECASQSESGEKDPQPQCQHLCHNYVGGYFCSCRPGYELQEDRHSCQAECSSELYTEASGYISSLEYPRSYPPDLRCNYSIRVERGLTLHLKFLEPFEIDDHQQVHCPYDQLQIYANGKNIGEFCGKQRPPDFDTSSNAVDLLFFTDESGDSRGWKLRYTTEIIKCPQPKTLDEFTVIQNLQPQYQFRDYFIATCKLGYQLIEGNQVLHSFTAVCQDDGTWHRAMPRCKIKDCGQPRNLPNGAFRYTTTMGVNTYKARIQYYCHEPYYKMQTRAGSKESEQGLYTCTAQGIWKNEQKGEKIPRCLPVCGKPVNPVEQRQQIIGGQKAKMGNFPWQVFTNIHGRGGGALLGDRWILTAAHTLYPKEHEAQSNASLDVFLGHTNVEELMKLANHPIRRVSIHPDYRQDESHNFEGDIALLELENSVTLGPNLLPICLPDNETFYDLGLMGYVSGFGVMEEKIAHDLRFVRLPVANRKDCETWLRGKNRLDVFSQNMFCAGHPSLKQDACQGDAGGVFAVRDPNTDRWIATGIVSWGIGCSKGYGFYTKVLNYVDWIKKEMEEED

B1: COS0637pHv21-G1A3FcgSil+LowpI (antibody, V domains shown)
VH: QVQLVESGGGVVQPGRSLRLSCAASGFTFSAYAMNWIRQPPGKGLEWIGLIYGSGHEFYASWAEERVTISVDTSKNQFSLKLSSVTAADTAVYYCARGRSKNYNSDFHLWGQGTLVTVSS
VL: DIQMTQSPSSLSASVGDRVTITCQAHEILHDKKNLAWYQQKPGQPPKLLIYSASILESGVPSRFSGSGSGTDFTLTISSLQPEDFATYYCHGEFSHGSGDLNHFGQGTKVEIKR
notes: VH 24, VL 47, CH 45, CL 23
B2: COS0637pHv23-G1A3FcgSil+LowpI (antibody, V domains shown)
VH: B1 VH with S54T, L109I
VL: B1 VL with G99A
notes: VH 28, VL 51, CH 45, CL 23
B3: COS0637pHv25-G1A3FcgSil+LowpI (antibody, V domains shown)
VH: B1 VH with I51M
VL: B1 VL with S52G, I55Q, L56R, S95P, G97S, G99A
notes: VH 32, VL 55, CH 45, CL 23
B4: recombinant human C1r2s2 tetramer (other)
chain 1: EPTMYGEILSPNYPQAYPSEVEKSWDIEVPEGYGIHLYFTHLDIELSENCAYDSVQIISGDTEEGRLCGQRSSNNPHSPIVEEFQVPYNKLQVIFKSDFSNEERFTGFAAYYVATDINECTDFVDVPCSHFCNNFIGGYFCSCPPEYFLHDDMKNCGVNCSGDVFTALIGEIASPNYPKPYPENSRCEYQIRLEKGFQVVVTLRREDFDVEAADSAGNCLDSLVFVAGDRQFGPYCGHGFPGPLNIETKSNALDIIFQTDLTGQKKGWKLRYHGDPMPCPKEDTPNSVWEPAKAKYVFRDVVQITCLDGFEVVEGRVGATSFYSTCQSNGKWSNSKLKCQPVDCGIPESIENGKVEDPESTLFGSVIRYTCEEPYYYMENGGGGEYHCAGNGSWVNEVLGPELPKCVPVCGVPREPFEEKQRIIGGSDADIKNFPWQVFFDNPWAGGALINEYWVLTAAHVVEGNREPTMYVGSTSVQTSRLAKSKMLTPEHVFIHPGWKLLEVPEGRTNFDNDIALVRLKDPVKMGPTVSPICLPGTSSDYNLMDGDLGLISGWGRTEKRDRAVRLKAARLPVAPLRKCKEVKVEKPTADAEAYVFTPNMICAGGEKGMDSCKGDSGGAFAVQDPNDKTKFYAAGLVSWGPQCGTYGLYTRVKNYVDWIMKTMQENSTPRED
chain 2: SIPIPQKLFGEVTSPLFPKPYPNNFETTTVITVPTGYRVKLVFQQFDLEPSEGCFYDYVKISADKKSLGRFCGQLGSPLGNPPGKKEFMSQGNKMLLTFHTDFSNEENGTIMFYKGFLAYYQAVDLDECASRSKLGEEDPQPQCQHLCHNYVGGYFCSCRPGYELQEDRHSCQAECSSELYTEASGYISSLEYPRSYPPDLRCNYSIRVERGLTLHLKFLEPFDIDDHQQVHCPYDQLQIYANGKNIGEFCGKQRPPDLDTSSNAVDLLFFTDESGDSRGWKLRYTTEIIKCPQPKTLDEFTIIQNLQPQYQFRDYFIATCKQGYQLIEGNQVLHSFTAVCQDDGTWHRAMPRCKIKDCGQPRNLPNGDFRYTTTMGVNTYKARIQYYCHEPYYKMQTRAGSRESEQGVYTCTAQGIWKNEQKGEKIPRCLPVCGKPVNPVEQRQQIIGGQKAKMGNFPWQVFTNIHGRGGGALLGDRWILTAAHTLYPKEHEAQSNASLDVFLGHTNVEELMKLGNHPIRRVSVHPDYRQDESYNFEGDIALLELENSVTLGPNLLPICLPDNDTFYDLGLMGYVSGFGVMEEKIAHDLRFVRLPVANPQACENWLRGKNRMDVFSQNMFCAGHPSLKQDACQGDAGGVFAVRDPNTDRWVATGIVSWGIGCSRGYGFYTKVLNYVDWIKKEMEEED
notes: C1s and C1r co-expressed in HEK293 and purified from the supernatant as tetramer; also called hC1r2s2

Columns and labels:
[1] = biological target: B4; test: SPR (Biacore T200), 37 C, pH 7.4; hC1r2s2 captured by IPN009, antibody as analyte
Experimental: (§1) The binding property of each sample at pH7.4 and pH6.0 was determined at 37° C. using BIACORE® T200 instrument (Cytiva). […] 20 mM ACES, 150 mM NaCl, 1.2 mM CaCl₂, 1 mg/mL BSA (not containing IgG), 1 mg/mL CMD, 0.05% Tween® 20, 0.005 w/v % NaN₃, pH7.4 or pH6.0 buffer was used as the running buffer. […] The antibody solution was added thereto at 30 μL/min for 120 seconds, the running buffer was then added at 30 μL/min for 180 seconds, and the dissociation constant (KD) of each antibody for hC1r2s2 and cyC1r2s2 was calculated. […] The sensor surface was regenerated every cycle, using 3 M MgCl2 (prepared in-house). The KD value was calculated using BIACORE® T200 evaluation software version 2.0 (Cytiva). The binding strengths under each pH condition were compared by dividing the KD value at pH6.0 with the KD value at pH7.4.

[2] = biological target: T1, recombinant cynomolgus C1r2s2 tetramer; test: SPR (Biacore T200), 37 C, pH 7.4; cyC1r2s2 captured by IPN009, antibody as analyte
Experimental: as §1

[3] = biological target: B4; test: SPR (Biacore T200), 37 C, pH 6.0; hC1r2s2 captured by IPN009, antibody as analyte
Experimental: as §1

[4] = biological target: B4; test: SPR (Biacore T200), 37 C; ratio of KD at pH 6.0 to KD at pH 7.4
Experimental: as §1

[5] = biological target: T1, recombinant cynomolgus C1r2s2 tetramer; test: as above
Experimental: as §1

[6] = biological target: T1, recombinant cynomolgus C1r2s2 tetramer; test: SPR (Biacore T200), 37 C, pH 6.0; cyC1r2s2 captured by IPN009, antibody as analyte
Experimental: as §1

[7] = biological target: T2, native human C1q (CompTech) (human, UniProt P02745 23-245; P02746 28-253; P02747 29-245); test: SPR (BIACORE T200, 37 C, pH 7.4), hC1r2s2 captured by immobilised IPN009VH2Vk3-SG1148, hC1q 100 nM then buffer, response normalised to C1r2s2 = 100 RU
T2 construct: the three subunits are from general knowledge; also called hC1q
Text: As the amount of capture, 200 resonance unit (RU) was aimed. […] The sensor surface was regenerated every cycle, using 3 M MgCl₂ (prepared in-house). The sensorgrams were obtained using BIACORE® T200 evaluation software, version 2.0 (Cytiva). […] For comparison of these sensorgrams, binding response of C1r2s2 was normalized as 100 RU.

T2 sequence (P02745 23-245 limits assumed, chain 1 of 3): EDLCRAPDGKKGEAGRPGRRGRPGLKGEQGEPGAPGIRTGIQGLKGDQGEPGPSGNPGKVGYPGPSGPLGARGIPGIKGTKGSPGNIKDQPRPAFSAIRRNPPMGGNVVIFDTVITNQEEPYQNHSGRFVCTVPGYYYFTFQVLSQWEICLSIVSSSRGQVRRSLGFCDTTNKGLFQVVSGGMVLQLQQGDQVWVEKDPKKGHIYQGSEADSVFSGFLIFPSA
T2 sequence (P02746 28-253 limits assumed, chain 2 of 3): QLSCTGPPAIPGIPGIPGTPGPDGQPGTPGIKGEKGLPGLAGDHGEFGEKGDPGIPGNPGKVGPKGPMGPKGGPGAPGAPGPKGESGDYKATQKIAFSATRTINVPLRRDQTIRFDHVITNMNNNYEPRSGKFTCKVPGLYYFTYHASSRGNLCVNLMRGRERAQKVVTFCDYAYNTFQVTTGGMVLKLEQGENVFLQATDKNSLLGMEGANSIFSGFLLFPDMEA
T2 sequence (P02747 29-245 limits assumed, chain 3 of 3): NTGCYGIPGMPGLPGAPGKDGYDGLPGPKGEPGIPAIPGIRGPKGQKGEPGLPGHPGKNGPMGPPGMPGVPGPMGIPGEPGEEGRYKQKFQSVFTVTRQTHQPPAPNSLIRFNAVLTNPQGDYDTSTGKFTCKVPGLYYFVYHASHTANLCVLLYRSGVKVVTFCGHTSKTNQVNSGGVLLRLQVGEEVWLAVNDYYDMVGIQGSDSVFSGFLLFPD

| Kd [1] [nM] | Kd [2] [nM] | Kd [3] [nM] | KD (pH 6.0)/KD (pH 7.4) [4] | KD (pH 6.0)/KD (pH 7.4) [5] | Kd [6] [nM] | binding result [7] | Binder |
| --- | --- | --- | --- | --- | --- | --- | --- |
| 0.26 | 0.346 | 31.3 | 120 | 182 | 62.9 |  | B1 |
| 0.249 | 0.334 | 27.4 | 110 | 139 | 46.3 |  | B2 |
| 0.198 | 0.243 | 21.3 | 108 | 276 | 67.1 |  | B3 |
|  |  |  |  |  |  | binds | B4 |
